Laboratory results: publication PMC7704405, “Monoclonal Anti-AMP Antibodies Are Sensitive and Valuable Tools for Detecting Patterns of AMPylation” (iScience, 2020)

Target: T1, endogenous AMPylated BiP of CHO-K1 cells (Cricetulus griseus (CHO-K1), UniProt G3I8R9, AMP (threonine 518 is the site the paper names for BiP modified by FICD))
T1 construct: ER chaperone BiP/Grp-78, endogenous in CHO-K1 cells; also called endogenous BiP-AMP; source: endogenous, CHO-K1 lysate (untreated or treated with CHX 4 h); also after methanol/chloroform precipitation (denatured)
Assay: western blot; 20 μg total cell lysate (HEK293, CHO-K1; untreated, TG 2 h or CHX 4 h; in Figure 4A HEK293 lysate spiked with a titration of recombinant BiP-AMP) on the blot, probed with 17G6 in the presence of MnCl2
Settings: one partner purified

T1 sequence (G3I8R9 19-654): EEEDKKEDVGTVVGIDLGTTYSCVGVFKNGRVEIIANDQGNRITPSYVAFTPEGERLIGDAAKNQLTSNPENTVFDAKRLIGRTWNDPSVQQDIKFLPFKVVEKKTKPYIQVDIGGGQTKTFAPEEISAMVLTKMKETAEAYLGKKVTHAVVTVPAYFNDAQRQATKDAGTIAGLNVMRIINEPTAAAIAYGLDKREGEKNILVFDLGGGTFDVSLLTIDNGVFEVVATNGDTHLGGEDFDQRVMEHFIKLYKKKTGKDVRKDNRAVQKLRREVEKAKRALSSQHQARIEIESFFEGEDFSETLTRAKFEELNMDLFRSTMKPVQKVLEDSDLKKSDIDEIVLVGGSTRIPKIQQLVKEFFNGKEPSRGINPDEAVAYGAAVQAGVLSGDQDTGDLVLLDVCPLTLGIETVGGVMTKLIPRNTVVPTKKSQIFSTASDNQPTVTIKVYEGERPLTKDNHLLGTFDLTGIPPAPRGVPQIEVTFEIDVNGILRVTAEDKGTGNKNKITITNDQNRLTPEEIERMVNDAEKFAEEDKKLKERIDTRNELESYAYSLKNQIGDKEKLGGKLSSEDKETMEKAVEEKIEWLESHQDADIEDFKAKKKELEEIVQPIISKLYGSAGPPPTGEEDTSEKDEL

binding result: binds
B1: monoclonal anti-AMP antibody 17G6 (antibody, V domains shown)
VH: EVQLQQSGPELVKPGASVKISCKASGYTFTDYYLNWVKQSHGKSLEWIGDIHPNKGINKYNQKFKGKATLTVDKSSSTAYMELRSLTSEDSAVYYCARYYGKRYFDVWGTGTMVTVSS
VL: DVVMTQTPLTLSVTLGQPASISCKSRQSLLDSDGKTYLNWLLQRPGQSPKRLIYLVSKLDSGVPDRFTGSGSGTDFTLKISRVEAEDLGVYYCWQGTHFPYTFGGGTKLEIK
notes: Recognises the AMP moiety on modified side chains; no preference for Thr or Tyr; source: mouse hybridoma (C57BL/6, BSA-hapten immunogen); roller bottle cell culture, purified from the supernatant (Protein A); clone supernatant in the selection ELISA
